The results in this text go back to patent US20260242478A1 (published 2026).

The target in assay [1] is T1, Anti-CD28 scFv (VH - linker 1 - VL) (biotinylated (site not stated)).
T1 construct: Biotinylated scFv captured on neutravidin coated plates in the panning ELISA
Nature of the assay: phage ELISA; biotinylated anti-CD28 scFv on neutravidin plate, clonal phage supernatant, anti-M13-HRP.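 Note: before the phage were added, wells were pre-incubated with soluble CD28 protein in blocking buffer, or with blocking buffer alone, and were not washed in between.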 A general note: ELISA stands for enzyme-linked immunosorbent assay.
T1 sequence (scFv, as listed by the source): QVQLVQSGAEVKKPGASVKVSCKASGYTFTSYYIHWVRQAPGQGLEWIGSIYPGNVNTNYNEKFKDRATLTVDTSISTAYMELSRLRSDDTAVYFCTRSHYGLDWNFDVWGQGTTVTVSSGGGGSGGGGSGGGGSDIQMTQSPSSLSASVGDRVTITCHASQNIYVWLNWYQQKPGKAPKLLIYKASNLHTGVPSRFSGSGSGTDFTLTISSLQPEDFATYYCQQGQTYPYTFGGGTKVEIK

Assay [2] deals with T1, Anti-CD28 scFv (VH - linker 1 - VL). Nature of the assay: phage ELISA as above, wells pre-incubated with soluble CD28 (competitor).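 Note: ELISA of crude clonal phage supernatants added to wells pre-treated with soluble CD28 in blocking buffer, bound phage read out with HRP-conjugated anti-M13 antibody.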
In assay [3] the target is T2, Anti-CD28 scFv (VH - linker 1 - VL) (biotinylated (site not stated)).
T2 construct: Biotinylated scFv captured on neutravidin coated plates in the panning ELISA
Description: phage ELISA; biotinylated anti-CD28 scFv on neutravidin plate, clonal phage supernatant, anti-M13-HRP detection.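 Note: before phage addition, wells were pretreated with soluble CD28 protein in blocking buffer, or with blocking buffer only as the comparison, then phage were added without washing.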
T2 sequence (scFv, as listed by the source): as above

Assay [4] addresses T2, Anti-CD28 scFv (VH - linker 1 - VL). Nature of the assay: phage ELISA; biotinylated anti-CD28 scFv on neutravidin plate, wells pre-incubated with soluble CD28 (competitor), anti-M13-HRP detection.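 Note: bound clonal phage detected by peroxidase-labelled anti-M13 antibody, compared against wells given blocking buffer alone without soluble CD28.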
Description: (§1) Clonal phage were harvested as crude supernatants and screened via standard enzyme linked immunosorbent assays (ELISAs). […] Prior to the addition of clonal phage, wells were incubated with blocking buffer and CD28 soluble protein or blocking buffer alone. Without washing or aspirating, clonal phage supernatants were then added to the wells and incubated for a short time. Wells were then washed followed by detection of bound phage using a horse radish peroxidase conjugated anti-M13 antibody.
Assay [5] has as its target T3, Anti-CD28 scFv (VH - linker 1 - VL) (biotinylated (site not given)). Nature of the assay: phage binding ELISA; biotinylated anti-CD28 scFv on neutravidin plate, bound phage detected with anti-M13-HRP.
The target of assay [6] is T3, Anti-CD28 scFv (VH - linker 1 - VL). Description: phage binding ELISA on anti-CD28 scFv plate; wells pre-incubated with soluble CD28 as competitor.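 Note: clonal phage supernatants tested, bound phage read out with an HRP-linked anti-M13 antibody, reference wells received blocking buffer lacking CD28.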
Description: as §1

Where no end group is shown, it is not given here.

T3 sequence (scFv, as listed by the source): as above

For the molecule MDWCPSFLWYECFN [Phage-367], in assay [1], the “CD28 scFv signal” value worked out at 1.13. Also, the “CD28 scFv signal in presence of CD28” value in assay [2] was determined as 0.104.
With MAWCPLDLWDKCFY [Phage-374], the “CD28 scFv signal” value in assay [1] is 0.77. In addition, in assay [2], the “CD28 scFv signal in presence of CD28” value is 0.141.
For MNWCPRALWHECFL [Phage-375], in that order: 0.759 and 0.107.
For the molecule MTWCPAYLWHECFN [Phage-370], the “CD28 scFv signal” value in assay [1] was 0.985. Besides, the “CD28 scFv signal in presence of CD28” value in assay [2] turned out to be 0.139.
Regarding MDWCPRNLWAECFS [Phage-379], the “CD28 scFv signal” value in assay [1] came out at 0.538. The “CD28 scFv signal in presence of CD28” value in assay [2] came out at 0.08.
For the molecule MDYCPSYLWHECFA [Phage-380], in assay [1], the “CD28 scFv signal” value worked out at 0.47. For the same molecule, the “CD28 scFv signal in presence of CD28” value in assay [2] amounted to 0.09.
For NHWCPTTLWNRCVA [Phage-386], in that order: 0.078 and 0.093.
Taken in the same sequence, the figures for ILRCQMNLQDECLN [Phage-385] were 0.083 and 0.077.
For MHWCPLYLWDECFY [Phage-366], in that order: 1.16 and 0.376.
Regarding MDWCPRYLWTECFS (tested as crude phage supernatant) [Phage-303], the “CD28 scFv signal” value in assay [3] amounted to 2.42. In addition, in assay [4], the “CD28 scFv signal in presence of CD28” value was determined as 0.329.
MDWCPRDLWTECFS (tested as crude phage supernatant) [Phage-305]: the “CD28 scFv signal” value in assay [3] came to 2.4. Besides, the “CD28 scFv signal in presence of CD28” value in assay [4] was found to be 0.174.
As to ITWCPTSLWNRCLV [Phage-382], the “CD28 scFv signal” value in assay [1] was 0.242. In addition, the “CD28 scFv signal in presence of CD28” value in assay [2] is 0.089.
Regarding MDWCPMFLWHECFN (tested as crude phage supernatant) [Phage-309], the “CD28 scFv signal” value in assay [3] was 2.38. In addition, the “CD28 scFv signal in presence of CD28” value in assay [4] turned out to be 0.591.
For MDWCPRDLWSVCFS (tested as crude phage supernatant) [Phage-290], in that order: 2.5 and 0.116.
With MDWCPRYLWPVCFH (tested as crude phage supernatant) [Phage-307], in assay [3], the “CD28 scFv signal” value stood at 2.39. In addition, the “CD28 scFv signal in presence of CD28” value in assay [4] was 0.602.
Consider LAGCQRDLATVCVI [Phage-383], for which the “CD28 scFv signal” value in assay [1] is 0.229. Besides, in assay [2], the “CD28 scFv signal in presence of CD28” value was determined as 0.116.
For MDWCPRILWSDCFN [Phage-373], in that order: 0.847 and 0.113.
For MHWCPRDLWYECFA [Phage-369], the “CD28 scFv signal” value in assay [1] is 0.995. The “CD28 scFv signal in presence of CD28” value in assay [2] was determined as 0.108.
As to MDWCPKSLWAECFN (tested as crude phage supernatant) [Phage-308], the “CD28 scFv signal” value in assay [3] worked out at 2.38. Besides, the “CD28 scFv signal in presence of CD28” value in assay [4] was 0.162.
Consider MDWCPRSLWAQCFY [Phage-364], for which the “CD28 scFv signal” value in assay [1] is 1.39. In assay [2], the “CD28 scFv signal in presence of CD28” value is 0.14.
As to MDWCPIYLWAECFN (tested as crude phage supernatant) [Phage-299], the “CD28 scFv signal” value in assay [3] came out at 2.45. In addition, in assay [4], the “CD28 scFv signal in presence of CD28” value is 0.307.
For the molecule MDWCPRALWDHCFF (tested as crude phage supernatant) [Phage-292], in assay [3], the “CD28 scFv signal” value amounted to 2.49. In addition, the “CD28 scFv signal in presence of CD28” value in assay [4] stood at 0.394.

B1: Phage-252 (peptide)
peptide: MDWCPRHMWINCFA
modifications: cysteine pairing not given here; also: fused to phage pIII, linker and fusion site not given here
notes: Clonal phage of the Peptide-9 library, tested as crude phage supernatant; not shown: pIII of the bacteriophage
As for B1, the “CD28 scFv signal” value in assay [5] is 0.92. Moreover, in assay [6], the “CD28 scFv signal in presence of CD28” value came out at 0.165.

B2: Phage-253 (peptide)
peptide: MVGCATSMWNRCLT
modifications: cysteine pairing not given here; also: fused to phage pIII, linker and fusion site not given here
notes: as for B1
For the molecule B2, the “CD28 scFv signal” value in assay [5] worked out at 0.77. For the same molecule, in assay [6], the “CD28 scFv signal in presence of CD28” value came out at 0.746.
Regarding MDWCPRYLWHECFF (tested as crude phage supernatant) [Phage-301], the “CD28 scFv signal” value in assay [3] was found to be 2.45. In addition, in assay [4], the “CD28 scFv signal in presence of CD28” value stood at 0.682.

B3: Phage-254 (peptide)
peptide: MDWCPRYLWSECFA
modifications: cysteine pairing not given here; also: fused to phage pIII, linker and fusion site not given here
notes: as for B1
With B3, in assay [5], the “CD28 scFv signal” value came out at 2.71. In addition, the “CD28 scFv signal in presence of CD28” value in assay [6] was 0.513.
MHWCPLHLWNECFA [Phage-378]: in assay [1], the “CD28 scFv signal” value came to 0.575. Moreover, the “CD28 scFv signal in presence of CD28” value in assay [2] was found to be 0.083.
For MDWCPRHLWLECFN [Phage-387], in that order: 0.066 and 0.074.
Taken in the same sequence, the figures for IMWCPTSLWNRCVT [Phage-384] were 0.161 and 0.129.
Taken in the same sequence, the figures for MDWCPFDLWLECFN [Phage-377] were 0.65 and 0.12.

B4: Phage-251 (peptide)
peptide: MDWCPRFMWSECFS
modifications: cysteine pairing not given here; also: fused to phage pIII, linker and fusion site not given here
notes: as for B1
For the molecule B4, the “CD28 scFv signal” value in assay [5] turned out to be 1.01. Also, the “CD28 scFv signal in presence of CD28” value in assay [6] is 0.137.
With MDWCPRYLWVDCFA [Phage-372], the “CD28 scFv signal” value in assay [1] worked out at 0.917. Moreover, the “CD28 scFv signal in presence of CD28” value in assay [2] turned out to be 0.218.
For MDWCPSYLWPVCFN [Phage-365], in that order: 1.18 and 0.131.
MAWCPRILWHQCFN [Phage-381]: in assay [1], the “CD28 scFv signal” value turned out to be 0.322. In assay [2], the “CD28 scFv signal in presence of CD28” value came to 0.129.

B5: Phage-264 (peptide)
peptide: MDWCPRHLWHVCFN
modifications: cysteine pairing not given here; also: displayed on phage pIII, linker not given here
notes: as for B1
As to B5, in assay [5], the “CD28 scFv signal” value came to 2.67. For the same molecule, the “CD28 scFv signal in presence of CD28” value in assay [6] is 0.636.

B6: Phage-255 (peptide)
peptide: MDWCPRHLWSVCFN
modifications: cysteine pairing not given here; also: fused to phage pIII, linker and fusion site not given here
notes: as for B1
B6: the “CD28 scFv signal” value in assay [5] is 2.65. Also, the “CD28 scFv signal in presence of CD28” value in assay [6] is 0.825.
Regarding MDWCPKFLWDECFA (tested as crude phage supernatant) [Phage-304], in assay [3], the “CD28 scFv signal” value amounted to 2.41. Also, the “CD28 scFv signal in presence of CD28” value in assay [4] was determined as 0.376.
On to MDWCPRYLWHVCFY (tested as crude phage supernatant) [Phage-291], for which the “CD28 scFv signal” value in assay [3] came to 2.5. Further, in assay [4], the “CD28 scFv signal in presence of CD28” value came to 1.14.
As for MDWCPRYLWHVCFD (tested as crude phage supernatant) [Phage-302], in assay [3], the “CD28 scFv signal” value came to 2.44. The “CD28 scFv signal in presence of CD28” value in assay [4] stood at 0.31.
With MDWCPRHLWTYCFH [Phage-376], the “CD28 scFv signal” value in assay [1] was 0.757. Moreover, in assay [2], the “CD28 scFv signal in presence of CD28” value was 0.207.
Taken in the same sequence, the figures for MSWCPPYLWTVCYN [Phage-368] were 1.1 and 0.326.
